# B1: untagged p16INK4a [not stated] / GSTCDK4 [human] (parent complex)
# chain 1: MEPAAGSSMEPSADWLATAAARGRVEEVRALLEAGALPNAPNSYGRRPIQVMMMGSARVAELLLLHGAEPNCADPATLTRPVHDAAREGFLDTLVVLHRAGARLDVRDAWGRLPVDLAEELGHRDVARYLRAAAGGTRGSNHARIDAAEGPSDIPD
# chain 2: MATSRYEPVAEIGVGAYGTVYKARDPHSGHFVALKSVRVPNGGGGGGGLPISTVREVALLRRLEAFEHPNVVRLMDVCATSRTDREIKVTLVFEHVDQDLRTYLDKAPPPGLPAETIKDLMRQFLRGLDFLHANCIVHRDLKPENILVTSGGTVKLADFGLARIYSYQMALTPVVVTLWYRAPEVLLQSTYATPVDMWSVGCIFAEMFRRKPLFCGNSEADQLGKIFDLIGLPPEDDWPRDVSLPRGAFPPRGPRPVQSVVPEMEESGAQLLLEMLTFNPHKRISAFRALQHSYLHKDEGNPE
# Variants of: B1
# Assay: HTRF displacement assay; CDK4 8 nM; value read at the highest [INK] point, about 500 nM; read off a plot
row,Variant,response [% Inhibition]
1,chain 1 D84N,~58

# Reference: publication PMC5681435 (2017)
